Measured values from patent publication US20240181006A1, “POLYPEPTIDES BINDING ADAMTS5, MMP13 AND AGGRECAN” (Merck Patent GmbH, priority 2017, published 2024).

How the values were obtained:
[1] = system: bovine cartilage explant chips; assay: bovine cartilage explant assay, IL-1α induced GAG release (02F03); type: cell-based
Method: In addition, ISVD 02F03 was further evaluated for its ability to block cartilage degradation in an ex vivo assay, in which the substrate is presented in a condition closer to the physiological condition compared to biochemical assays. In brief, bovine cartilage explant chips (diameter 4 mm) were prepared freshly from cow knee joints and incubated in 96-well plates in presence of IL-1α to induce cartilage degradation. As a measure of cartilage/Aggrecan degradation, the release of glycosaminoglycan (GAG) was detected in the supernatant after 5 days of incubation (37° C., 7.5% C02) via the metachromatic dye 1,9 dimethylmethylene blue ([…] at 633 nm). Chondroitin sulphate was included as assay standard. Efficacy was defined by means of the IL-1α-induced controls without compound (0%) and in presence of MSC2310852A (100% effect).

guinea pig ADAMTS5 = target: T1, guinea pig ADAMTS5 (Cavia porcellus, UniProt H0VFP0); assay: SPR-based off-rate analysis, guinea pig ADAMTS5; type: binding; settings: Experiment 1
T1 sequence (H0VFP0 21-906): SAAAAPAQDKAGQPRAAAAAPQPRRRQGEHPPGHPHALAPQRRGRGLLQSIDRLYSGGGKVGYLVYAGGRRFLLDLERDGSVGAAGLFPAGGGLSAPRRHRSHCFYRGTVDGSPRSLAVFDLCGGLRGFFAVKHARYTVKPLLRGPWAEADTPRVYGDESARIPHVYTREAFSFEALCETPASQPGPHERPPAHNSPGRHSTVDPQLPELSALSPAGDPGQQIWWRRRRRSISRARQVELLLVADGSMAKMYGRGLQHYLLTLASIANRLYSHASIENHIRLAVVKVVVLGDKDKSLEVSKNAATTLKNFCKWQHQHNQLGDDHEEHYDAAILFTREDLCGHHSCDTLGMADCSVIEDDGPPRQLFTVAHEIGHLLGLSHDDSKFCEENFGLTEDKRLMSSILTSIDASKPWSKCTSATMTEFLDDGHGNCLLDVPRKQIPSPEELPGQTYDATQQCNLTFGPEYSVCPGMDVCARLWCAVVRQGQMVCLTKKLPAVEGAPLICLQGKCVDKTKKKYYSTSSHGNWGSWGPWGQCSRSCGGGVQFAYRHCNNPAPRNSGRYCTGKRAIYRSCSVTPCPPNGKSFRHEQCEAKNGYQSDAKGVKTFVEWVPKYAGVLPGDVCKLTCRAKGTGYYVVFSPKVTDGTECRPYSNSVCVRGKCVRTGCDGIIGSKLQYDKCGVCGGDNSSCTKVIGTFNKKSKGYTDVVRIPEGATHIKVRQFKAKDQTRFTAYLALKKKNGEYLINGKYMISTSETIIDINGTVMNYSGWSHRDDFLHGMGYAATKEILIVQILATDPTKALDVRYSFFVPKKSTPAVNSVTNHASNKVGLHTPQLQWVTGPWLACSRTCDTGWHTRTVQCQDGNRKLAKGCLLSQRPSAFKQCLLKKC
Method: Species cross-reactivity was initially evaluated via SPR-based off-rate analysis on a Biacore T100 instrument. Polypeptides were tested for binding to human, cynomolgus monkey (“cyno”), guinea pig, mouse, and bovine ADAMTS5. To this end, recombinant ADAMTS5 was immobilized onto a CM5 chip via amine coupling using EDC and NHS. Purified ISVD 02F03 was injected for 2 minutes at a concentration of 100 nM and allowed to dissociate for 15 min at a flow rate of 45 μl/min. Off-rate for each individual ADAMTS5 was determined by fitting a 1:1 interaction model (Langmuir model) onto the individual dissociation curves using the BIA Evaluation software. As a reference, off-rates on human ADAMTS5 were determined in each experiment.

human MMP1 = target: T2, human MMP1 (Homo sapiens, UniProt P03956); assay: FRET-based human MMP1 assay (selectivity of 02F03); type: biochemical; settings: data not shown
T2 sequence (P03956 100-469): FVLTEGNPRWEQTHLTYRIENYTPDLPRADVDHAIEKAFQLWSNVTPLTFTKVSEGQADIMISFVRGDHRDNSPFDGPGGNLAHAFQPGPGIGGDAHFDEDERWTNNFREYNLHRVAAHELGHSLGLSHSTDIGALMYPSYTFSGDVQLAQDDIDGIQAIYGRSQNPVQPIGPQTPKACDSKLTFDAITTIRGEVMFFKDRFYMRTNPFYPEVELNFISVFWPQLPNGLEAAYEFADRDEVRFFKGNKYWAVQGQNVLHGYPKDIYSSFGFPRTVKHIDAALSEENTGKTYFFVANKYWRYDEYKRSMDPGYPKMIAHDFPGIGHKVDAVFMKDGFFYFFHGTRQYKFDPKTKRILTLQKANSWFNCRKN
Method: (§1) To confirm the selectivity of ISVD 02F03 for ADAMTS5, inhibition of the enzymatic activity of MMP1, MMP14 and ADAMTS4 was evaluated via FRET-based assays and a human ADAMTS4 AlphaLISA, with the respective enzymes.
(§2) Activated human MMP1 or MMP14 was incubated for 30 minutes at room temperature with 10 μl of dilution series of ISVD 02F03. After incubation, 20 μl of respectively 5 μM or 2.5 μM fluorogenic peptide substrate (Mca-PLGL-Dpa-AR-NH2 Fluorogenic MMP Substrate (R&D Systems cat #ES001)) was added. The ability of ISVD 02F03 to prevent MMP1- and MMP14-mediated cleavage was monitored every minute for 2 hours at 37° C. on a Tecan Infinite M1000 plate reader.

human MMP14 = human MMP14 (Homo sapiens, UniProt P50281); assay: FRET-based human MMP14 assay (selectivity of 02F03); type: biochemical; settings: data not shown
Method: as §1, §2

- SPR based off-rate, kd, Guinea pig ADAMTS-5 (guinea pig ADAMTS5): 3.4e-05 s⁻¹
- inhibition of MMP1 activity (human MMP1): did not show any inhibition
- inhibition of MMP14 activity (human MMP14): did not show any inhibition
B1: ISVD 02F03: immunoglobulin single variable domain which specifically binds ADAMTS5 (protein)
VHH: EVQLVESGGGVVQPGGSLRLSCAASGRTVSSYAMGWFRQAPGKEREFVAGISRSAERTYYVDSLKGRFTISRDNSKNTVYLQMNSLRPEDTALYYCAADLDPNRIFSREEYAYWGQGTLVTVSS
modifications: Description of Artificial Sequence: Synthetic anti-ADAMTS5 immunoglobulin single variable domain (ISVD)
- IC50 ([1]; IL-1α, GAG release after 5 days): 14 nM
- IC50 times lower than mAb 12F4 in bovine explant assay ([1]; versus bivalent mAb 12F4): about 50 times
